In publication PMC3470943, “Identification of BACE2 as an avid ß-amyloid-degrading protease” (Molecular Neurodegeneration, 2012):

Biological target: T1, BACE2 (Homo sapiens, UniProt Q9Y5Z0)
T1 construct: purchased R&D Systems
T1 sequence (Q9Y5Z0 63-518): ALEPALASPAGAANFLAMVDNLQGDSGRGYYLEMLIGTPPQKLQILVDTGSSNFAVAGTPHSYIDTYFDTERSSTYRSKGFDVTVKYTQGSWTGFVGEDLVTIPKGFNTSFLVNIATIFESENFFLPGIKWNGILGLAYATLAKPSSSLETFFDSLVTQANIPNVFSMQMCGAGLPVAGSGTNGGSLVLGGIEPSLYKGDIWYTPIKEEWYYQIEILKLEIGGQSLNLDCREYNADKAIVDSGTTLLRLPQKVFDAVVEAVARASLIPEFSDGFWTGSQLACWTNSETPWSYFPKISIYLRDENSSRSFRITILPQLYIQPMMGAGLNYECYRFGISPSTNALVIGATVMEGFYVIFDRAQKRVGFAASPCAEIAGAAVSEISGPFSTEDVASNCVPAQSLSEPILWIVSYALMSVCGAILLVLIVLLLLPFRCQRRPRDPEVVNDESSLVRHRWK
Experiment: Cleavage of biotinylated Aβ by BACE2, immunoprecipitation/mass spectrometry (IP/MS)
Type: biochemical
Settings: peptide 300 nM, BACE2 5 nM, within 1 h; 25 mM acetate buffer pH 4.0, 0.1% BSA; product Aβ34; SELDI-TOF MS
Description: We next investigated which peptide bond(s) within Aβ are hydrolyzed by BACE2 and BACE1. To that end, we co-incubated N-terminally biotinylated Aβ40 or Aβ42 (300nM) with BACE2 (5 nM) and analyzed the products by immunoprecipitation/mass spectrometry (IP/MS) (see Methods). […] To test whether any additional cleavages can occur, we incubated N-terminally biotinylated Aβ40 (300 nM) with a larger amount of BACE2 (25 nM) for 1 and 24 h. At these higher concentrations and longer incubation times, Aβ19 and Aβ20 were the principal N-terminal fragments remaining at the end of the reaction (Figure 3E-F).
The cleavage sites within Aβ40 and Aβ42 hydrolyzed by BACE2 and BACE1 were determined essentially as described with minor modifications. Briefly, Aβ peptides or biotinylated Aβ peptides were incubated for various lengths of time with recombinant BACE2 enzyme in Assay Buffer (25 mM acetate buffer, pH 4.0, supplemented with 0.1% BSA). The reaction was stopped by addition of protease inhibitor cocktail and pH adjustment. Aβ fragments were immediately precipitated by magnetic beads coated with streptavidin (for biotinylated Aβ) or magnetic beads coated with Ab9 antibody (for unmodified Aβ). […] Digested products were spotted onto a gold chip, dried, and analyzed using a Ciphergen ProteinChip SELDI time-of-flight system (Bio-Rad). […]

N-terminally biotinylated Aβ40: Aβ40 biotinylated at the N-terminus, substrate for IP/MS
extent of hydrolysis by BACE2: almost completely hydrolyzed

N-terminally biotinylated Aβ42: Aβ42 biotinylated at the N-terminus, substrate for IP/MS
extent of hydrolysis by BACE2: almost completely hydrolyzed
